A short description of the series: yeast display, Sf9 membrane polyspecificity reagent, FACS + sequencing; frameworks hold sequencing errors. The method in brief:
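Sorting gates, low and high (top ~1%), were placed on anti-HA fluorescence to track expression and on streptavidin fluorescence to track reagent binding. A clone's polyreactivity label is taken from the gate it came out of. The reagent was 10% biotinylated, detergent-solubilized Sf9 membrane, applied for 1 hour at 4 °C to galactose-induced yeast display cells.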
On to “QVQLVESGGGLVQAGGSLRLSCAASGLIFYTYAMGWYRQAPGKERELVATISGRGGSTYYADSVKGRFTISRDNAKNTVYLQMNSLKPEDTAVYYCNVVPSTYYQYDYWGQGTQVTVSS”, for which the “polyreactivity (PSR sort gate)” value was “high polyreactivity”.

For the sequence “QVQLVESGGGLVQAGGSLRISCAASGRTFWKYAMGWYRQAPGKERELVAAITASGARTYYADSVKGRFTISRDNAKNTVYLQMNSLKPEDTAVYYCNAGSVSDRQMDYWGQGTQVTVSS”, the “polyreactivity (PSR sort gate)” value is “low polyreactivity”. “QVQLVESGGGLVQAGGSLRLSCAASGRIFPKYAMGWYRQAPGKERELVAGITKRVGSTYYADSVKGRFTISRDNAKNTVYLQMNSLKPEDTAVYYCAKRWVSRTHGYWGQGTQVTVSS”: the “polyreactivity (PSR sort gate)” value was “low polyreactivity”.

Consider “QVQLVESGGGLVQAGGSLRLSCAATGSIFQGNVMGWYRPAPGKERELVAGISSSGGRTYYADSVKGRFTISRDNAKNTVYLQMNSLIPEDTAVYYCNAVPSNRQLDYDYWGQGTLVTVSS”, for which the “polyreactivity (PSR sort gate)” value is recorded as “high polyreactivity”. On to “QVQLVESGGGLVQAGGSLRLSCAASSRIFVAKAMGWYRKAPGKERELVATITRGASTNYADSVKGRFTISRDNAKNTVYLQMNRLKPEDTAVYYCDKRSYTGYEYWGQGTQVTVSS”, for which the “polyreactivity (PSR sort gate)” value was “low polyreactivity”. On to “QVQLVESGGGLVQAGGSLRLSCAASGRTFSYYAMGWYRQAPGKERELVARITYRGGRTYYADSVKGRFTISRDNAKNTVYLQMNSLKPEDTAVYYCNADAINKRGGLDYWGQGTQVTVSS”, for which the “polyreactivity (PSR sort gate)” value is recorded as “high polyreactivity”. With “QVQLVESGGGLVQAGGSLRLSCAASGRILKYYDMGWYRQAPGKERELVAAISVSGTSTYYADSVKGRFTISRDNAMNTVYLQMNSLKPEVTAVYYCATATGRYSFDYWGQGTQVTVSS” the entry was “low polyreactivity”; with “QVQLVESGGGLVQAGGSLRLSCAASGFIFGGYAMGWYRQAPGKERELVAAISSSGGSTYYADSVKGRFTISRDNAKNTVYLQMNSLKPEDTAVYYCAKVGWSRRYYYWGQGTQVTVSS”, “high polyreactivity”; with “QVQLVESGGGLVQAGGSLRLSCAASGRIFNAYAMGWYRQAPGKERELVATISWRTGSTYYADSVKGRFTISRDNAKNTVYLQINSLKPEDTAVYYCNAKVGSYGAQGYRFAYNYWGQGTQVTVSS”, “high polyreactivity”. With “QVQLVESGGGSVQAGGSLRLSCAASGFIFDGYTMGWYRQAPGKERELVAAISRSGGRTYYADSVKGRFTISRDNAKHTVYLQLNSLKPEDTAVYYCAVRYRQYSQTVASDYGYWGQGTQVTVSS” the entry was “high polyreactivity”. As for “QVQLVESGGGLVQAGGSLRLSCAASGSIFGTYAMGWYRQAPGKEREFVAAISWSDGSTYYADSVKGRFTISRDNAKNTVYLQMNSLIPEDTAVYYCAVRRVGSIYIDRYIYVVADYDYWGQGTQVTVSS”, the entry is “low polyreactivity”; as for “QVQLVESGGGLVQAGGSLRLSCAASGSIFWKYAMGWYRQAPGKERELVAAISRSSSTTYYADSVKGRFTISRDNAKNTVYLQMNSLKPEDTAVYYCAAYYRSRVSDDYWGQGTQVTVSS”, “high polyreactivity”. Take “PVQRVESGGGLVQAGGSLRLSCAASGRTFDSYAMGWYRQAPGKERELVAAISSRGTRTYYADSVKGRFTSSRDNAKNPVYLQINSLQPEDTAGYYCNAGGAYEYDYWGQGSQVTVSS”: the “polyreactivity (PSR sort gate)” value is given as “high polyreactivity”. With “QVQLVESGGGLVQAGGSLRLSCAASGLIFIFNTMGWYRQAPGKERELVAAISWSGTSTYYADSVKGRFTISRDNAKNTVYLQMHSLKPEDTAVYYCAARGYYYKYSTARRNYWGQGTQVTVSS” the entry was “high polyreactivity”. As for “QVQLVESGGGLVQAGGSLRLSCAASGRTFTVYAMGWYRQAPGKERELVATISGSTGSTYYADSVKGRFTISRDNAKNTVYLQMNSLKPEDTAVYYCAARVRYRYLIGSGFDYWGQGTQVTVSS”, the entry is “low polyreactivity”.

Regarding “QVHLVESGGGIVQAGGSLRLSCAASGFTFTQYGMGWYRQAPGKEREFVATIRFSGDNTYYADSVKGRFTISRDNAKNTVYLQMNSLNPEDTAVYYCNADNRAFFVYPVSKRYDYWGQGTQVTVSS”, the “polyreactivity (PSR sort gate)” value is on record as “low polyreactivity”. As for “QVQLVESGGGLVQAGGSLRLSCAASGRTFFRNAMGWYRQAPGKERELVAAISSSGGSTYADSVKGRFTISRDNAKNTVYLQMNSLKPEVTAVYYCATRFQYTRTWYSRKYDYWGQGTQVTVSS”, the entry is “high polyreactivity”; as for “QVQLEESVGGLVQAGGSLRLSCAASGRIFTPYAMGWYRQAPGKERELVATISRGTSTSYADSVKGRFTISRDNAKNTVYLQMNSLKPEDTAVYYCAALGPRTTFRYTSYYYWGQGTQVTVSS”, “high polyreactivity”; as for “QVQLVESGGGLVQAGGSLRLICAASGSYAMGWYRQAPGKERELVASIDGPGGSTYYADSVKGRFTISRDNAKNTVYLQMNSLKPEDTAVYYCEDWAPGLYDYWGQGTQVTVSS”, “low polyreactivity”. With “QVQLVESGGGLVQAGGSLRLSCAASGNTFIEYAMGWYRQAPGKERELVAAINWNGGSTYYADSVKGRFTISRDNAKNTVYLQMNSLKPEDTAVYYCYADYPQYWDYRTSDYTYGTYNYWGQGTQVTVSS” the entry was “low polyreactivity”; with “QVQLVESGGGLVQAGGSLRLSCAASGRTFYTNAMGWYRQAPGKERELVAVISRGGTTYYADSVKGRFTISRDNEKNTVYIQMNSLKPEDTAFYYCAIQSPSGDSSSQMGSWGQGTQVTVSS”, “low polyreactivity”; with “QVQLQESGGGLMQAGVSQRLSCAASGSISYYSDMGWYRQAPRKEREFVAGIGYGTTTYYADSVKGRFTTSRDNAKNTVYLQMISMKPEDTAVYYCAAYQGNGYEFYYWGQGTQVTVRS”, “low polyreactivity”. As for “QVQLVESGGGLVQAGGSLRLSCAASGSTFFHYAMGWYRQAPGKERELVAAIDSNGGSTYYADSVKGRFTISRDNAKNTVYLQMNSLKPEVTAVYYCAADDLAEFEYDYWGLGTQVTVSS”, the entry is “low polyreactivity”; as for “QVHLVESGGGLLQAGGSLRLSCAASGRTSDSNAMGWYRQAPGKETELVAAITISGVSTYYADTVKGRFTISRDNAKNTVYLQMNSLKPEDTAVYYCAKDPTFSSSFAVSLGFDSWGQGTQVTVSS”, “low polyreactivity”. Consider “QVQLVESGGGLVQAGGSLRLSCAASGFTFAYYAMGWYRPAPGKERELVATIRGGGSTNYADSVKGRFTISRDNAKNTVYLQMNSLKPEDTAVYYCAAGYVWYFDYFSAYYWGQGTQVTVSS”, for which the “polyreactivity (PSR sort gate)” value is recorded as “high polyreactivity”. In the case of “QVQLVESGGGVVQAGGSLRLSCAASGSIFRQNTMGWYRQAPGKERELVAAISSGGSTYYADSVKGRFTISRDNAKNTVYLQMNSPKPEDTAVYYCAAYHSFVWGDDYWGQGTQVTVSS”, the “polyreactivity (PSR sort gate)” value is “low polyreactivity”. As for “QGQLQESGGGLVQAAGSLRMSCAASGTIFSEANMGWYRQAPGQVRELVATIGQGSTTNYADSVKGRFTISRDNAKNTVYLQMISLKPEETGVYYCAVVTVDPVGFVYWGQGTQVTVSS”, the “polyreactivity (PSR sort gate)” value is reported as “low polyreactivity”.

“QVQLVESGGGLVQAGGSLRLSCAASGFTFRRNAMGWYRQAPGKERELVAAITASGGRTYYADSVKGRFTISRDYAKNTVYLQMNSLKPEDTAVFYCAARLRNIYYFRMGYWGQGTKVTVSS”: the “polyreactivity (PSR sort gate)” value is reported as “high polyreactivity”. As to “QVQLVESGGGLVQAGGSLRLSCAASGRTFNYYAMGWYRQAPGKERELVAAISTSGGSTYYADSVKGRFTISRDNAKNTVYLQMNSLKPEDTAVYYCNAVYRVWYAEWSTVGSPHDYWGQGTQVTVSS”, the “polyreactivity (PSR sort gate)” value is “low polyreactivity”. With “QVQLVESGGGLVQAGGSLRVSCAASGRIFVDYAMGWYRQAPGKERELVAAISRRGGSTYYADSVKGRFTISRDNAKNTVYLQMNSLKPEDTAVYYCNALVNSGGGYGATEYDYWGQGTQVTVSS” the entry was “high polyreactivity”; with “QVQLEESGGGLVQAGGSLRLICAASGIFFIYAMGWYRQARGKERELVADIDSGGPTYYADSVKGRFTISRDNAKNTVYLQMNRLQPEDTAVYYCAFDYSNVDLYSLLFYESDYWGQGTQVTVSS”, “low polyreactivity”.

For “QDQLVESGGGLVQAVGSLRLSCAASGSIFDVNALGWYRQAPGKERELVAAISQRGTRTYYADSVKGRFTISRDNAKNTVYLQMNSLKPEDTAVYYCNRGGWRQYDSWGQGTQVTVSS”, the “polyreactivity (PSR sort gate)” value was “high polyreactivity”. “QVQLVESGGGLVQAGGSLRLSCAASGFTFWRYAMGWYRQAPGKERELVAAISRNGGRTYYADSVKGRFTISRDNAKNTVYLQMNSLKPEDTAVYYCAADSDIEYEYWGQGTQVTVSS”: the “polyreactivity (PSR sort gate)” value is “high polyreactivity”. As for “QVHLVESGGGLVQAGGSLRLSCAASGSTFDHYAMAWYRQAPGKERELVASITLSGGSTYYADSVKGRFTISRDNAKNTVYLQMNSLKPEDTAVYYCAAVVVYPYRLGYDYWGQGTQVTVSS”, the entry is “low polyreactivity”; as for “QVQLVESGGGLVQAGGSLRLSCAASGRIFPWYAMGWYRQAPGKERELVATITRGTSTNYADSVKGRFTISRDNAKNTVYLQMNSLKPEDTAVYYCAASSSRRRYYYWGQGTQVTVSS”, “high polyreactivity”. With “QVQLVESGGGLVQAGGSLRLSCAASGSIFDVNTMGWYRQAPGKERELVAAISRGGSTNYADSVKGRFTISRDNAKNTVYLQMNSLKPEDTAVYYCNKRYQNQYDYWGQGTQVTVSS” the entry was “low polyreactivity”; with “QVQLVESGGGLVQAGGSLRLSCAASGRTFLYNALGWYRQAPGKERELVAAISWSGGSTYYADSVKGRFTISRDNAKNTVYLQMNSLKPEDTAVYYCAATGRRSGFFYWGQCTQVTVSS”, “high polyreactivity”.

In the case of “QVQLVESGGGLVQAGGSLLLSCAASGRILDFYDMGWYRQAPGKERELVAAITNSASTYYADSVKGRFTISRDNAKNTVYLQMNRLKPEDTAVYYCNADLYRGAYYGTYWSDWGYDYWGQGTQVTVSS”, the “polyreactivity (PSR sort gate)” value is “low polyreactivity”. With “QVQLVESGGGLVQAGGSLRLSCAASGRIFWDNAMGWYRQAPGKERELVAAIDYRGGNTNYADSVKGRFTISRDNAKNTVYLQMNSLKPEDTAVYYCNAEWAVRYPGYDYWGQGTQVTVSS” the entry was “low polyreactivity”; with “QVQLVESVGGLVQAGGSLRLSCAASGFNFSAYAMGGYRQAPGKESELVAAISWSGSRTYYADSVKGRFTISRDNAKNTVYLQMNSLKPEDTAVFYCAKEPYDTFGFYEYDYWGQGTQVTVSS”, “low polyreactivity”. As for “QVQLVESGGCLVQAGGSLRLSCAASGFIFSGYVMGWYRQAPGKERELVARIDGGGTTNYADSVKGRFTISRDNAKNTVYLQMNSLKPADTAVYYCNARFGEGFDYWGQGTQVTVSS”, the entry is “low polyreactivity”.

For the origin of these results see the nanobody polyreactivity screen of Harvey et al. (2022).
